Data on one protein can be found in patent publication US20140134202A1 (FOLIA BIOTECH, published 2014).

The data set deals with the molecule itself. Kind of data set: gel filtration (Superdex 200), self-association into disks. (SEC sorts molecules by how far they enter the pores of the column.)

B1: CP.DELTA.N5 PapMV coat protein (recombinant, N-terminal 5 amino acids deleted, alanine inserted at p (other)
chain: MASTPNIAFPAITQEQMSSIKVDPTSNLLPSQEQLKSVSTLMVAAKVPAASVTTVALELVNFCYDNGSSAYTTVTGPSSIPEISLAQLASIVKASGTSLRKFCRYFAPIIWNLRTDKMAPANWEASGYKPSAKFAAFDFFDGVENPAAMQPPSGLTRSPTQEERIANATNKQVHLFQAAAQDNNFASNSAFITKGQISGSTPTIQFLPPPE
notes: also called CPΔN5; CPΔN5 PapMV VLP
For the protein B1, the binding result is reported as “binds”.
